“Also recorded” adds a separate entry of the source. Positions of bridges follow the written chain, without caps; N, C: chain ends. Residues, ends and D or L forms follow the SMILES beside them.
Assays:
[1] = biological target: trypsin (Sus scrofa, UniProt P00761); experiment: Trypsin digestion resistance of soluble peptide, RP-HPLC; assay type: in vitro ADME, porcine; set-up: purchased Sigma Aldrich 6567; conditions: 30 minutes at 37.5° C.
Method: (§1) Peptides were first suspended in 500 μl of ddH2O to a stock concentration of 2 mg/ml. Reactions were prepared by adding 12.5 μg of peptide from the stock solution to a 10 mM solution of DTT in PBS and allowed to incubate at room temperature for 30 minutes. Other reactions were prepared with 12.5 μg peptide and 500 U/ml trypsin in 25 mM Tris/75 mM NaCl buffer (pH 7.0) and incubated for 30 minutes at 37.5° C. These reactions were then quenched with 5 μg of soybean trypsin inhibitor (I) and, in some cases, 10 mM dithiothreitol (DTT). Reversed phase HPLC (RP-HPLC) was run on samples using an Agilent 1260 HPLC equipped with a C-18 Poroshell 120B column. Sample were analyzed by a gradient method with a mobile phase of Solvent A (water with 0.1% TFA) and Solvent B (acetonitrile with 0.1% TFA). Solvent B was ramped up from 5%-45% of the mobile phase over a period of 10 minutes. For testing pepsin digestion resistance, reactions were prepared with 12.5 μg peptide with or without 500 U/ml pepsin in simulated gastric fluid (SGF; pH 1.05; […] sodium chloride in 0.7% (v/v) hydrochloric acid) and were incubated for 30 minutes at 37.5° C. For testing temperature resistance, peptides were incubated at 70° C., 75° C., or 100° C. for one hour in 0.5 mM PBS, pelleted, and then the supernatant was analyzed by HPLC.
(§2) This example illustrates peptide stability in biological conditions including in the presence of reducing agents, proteases, oxidative conditions, acidic conditions, and simulated gastric fluids. […] Various peptides were suspended in 500 μl of ddH2O at a stock concentration of 2 mg/ml. This was then diluted in accord with the reaction conditions to prevent adverse buffering effects. Reactions were prepared with 12.5 μg peptide dissolved in solution and, in some samples, additionally suspended in a 10 mM solution of DTT, simulated gastric fluid (pH 1.05; […] sodium chloride in 0.7% (v/v) hydrochloric acid), 500 U pepsin (5000 U/ml pepsin), 50 U trypsin (500 U/ml trypsin) with 1 mg/ml inhibitor in PBS, or a combination of any of these conditions. All protease reactions were incubated for 30 min at room temperature and then quenched. Pepsin reactions were quenched by adding Tris base to a final concentration of 0.075 M. Trypsin reactions were quenched by adding excess soybean trypsin inhibitor. RP-HPLC was then run on samples using an Agilent 1260 HPLC equipped with a C-18 Poroshell 120B column. Sample were analyzed by a gradient method with a mobile phase of Solvent A (water with 0.1% TFA) and Solvent B (acetonitrile with 0.1% TFA). Solvent B was ramped up from 5%-45% of the mobile phase over a period of 10 minutes.
Soluble peptides were exposed to 500 U/mL porcine trypsin and analyzed by HPLC. Protease resistance was also assessed by using SDPR-displaying peptides. The SDPR vector is similar to the a surface display GFP FasL(SDGF) vector, but contains a C-terminal 6×His tag (SEQ ID NO: 180) and all basic or aromatic amino acid residues on the stalk removed. Protease resistance is then tested by incubation of cells displaying peptides with trypsin or chymotrypsin, followed by incubation in 10 mM DTT, and staining with an anti-6×His fluorophore-labeled antibody (“6×His” disclosed as SEQ ID NO: 180). If peptides are uncleaved, they retain the His tag and are stained with by the antibody. A control protease-sensitive knottin peptide (SK) was used as a positive control. Cells displaying peptides were treated with up to 40 μg/ml trypsin or chymotrypsin.
FIG. 21 illustrates high performance liquid chromatograph (HPLC) traces of peptides after trypsin digestion. […] The assay was carried out by reconstituting 1 mg porcine trypsin (Sigma Aldrich 6567) in 1 mL of 1 mM HCl. Trypsin was provided at a concentration of 10,000 u/mL and thus, 5 μl of stock solution was equivalent to using 50 U of trypsin in each reaction. Soybean trypsin inhibitor (SA T9128) was prepared at 1 mg/mL of in H2O. […]

[2] = biological target: pepsin (Sus scrofa, UniProt P00791); experiment: Pepsin digestion resistance in simulated gastric fluid, RP-HPLC; assay type: in vitro ADME, porcine; set-up: purchased Sigma Aldrich P7012
Method: Peptides were first suspended in 500 ul of ddH2O to a stock concentration of 2 mg/ml. Reactions were prepared by adding 12.5 ug of peptide from the stock solution to a 10 mM solution of DTT in PBS and allowed to incubate at room temperature for 30 minutes. Other reactions were prepared with 12.5 μg peptide with or without 500 U/ml pepsin in simulated gastric fluid (SGF; pH 1.05; […] sodium chloride in 0.7% (v/v) hydrochloric acid) and were incubated for 30 minutes at 37.5° C. Some reactions were quenched with a final concentration of 100 mM Tris base and 10 mM dithiothreitol (DTT). Some reactions were performed in all of the above components, including simulated gastric fluid, pepsin, Tris, and DTT (referred to as SPTD). Reversed phase HPLC (RP-HPLC) was run on samples using an Agilent 1260 HPLC equipped with a C-18 Poroshell 120B column. Sample were analyzed by a gradient method with a mobile phase of Solvent A (water with 0.1% TFA) and Solvent B (acetonitrile with 0.1% TFA). Solvent B was ramped up from 5%-45% of the mobile phase over a period of 10 minutes. Peptides were detected at an absorbance of 214 nm and 280 nm.
as §1, §2
FIG. 20 illustrates high performance liquid chromatograph (HPLC) traces of peptides after pepsin digestion. […]

[3] = Resistance to elevated temperature, HPLC; assay type: physicochemical; conditions: HPLC; for resistance to incubation at 70° C. (in words): 70° C. for 1 hour; for resistance to incubation at 100° C. (in words): 100° C. for 1 hour
Method: as §1
This example illustrates peptide stability at high temperatures. Peptides were first suspended in 500 μl of ddH2O to a stock concentration of 2 mg/ml. Reactions were prepared by adding 6.25 μl of peptide from the stock solution with 95 μl ddH2O and incubated at room temperature, 70° C., or 100° C. for one hour in a Thermocycler. RP-HPLC was then run on samples using an Agilent 1260 HPLC equipped with a C-18 Poroshell 120B column. Sample were analyzed by a gradient method with a mobile phase of Solvent A (water with 0.1% TFA) and Solvent B (acetonitrile with 0.1% TFA). Solvent B was ramped up from 5%-45% of the mobile phase over a period of 10 minutes.

Chain of trypsin (P00761 9-231): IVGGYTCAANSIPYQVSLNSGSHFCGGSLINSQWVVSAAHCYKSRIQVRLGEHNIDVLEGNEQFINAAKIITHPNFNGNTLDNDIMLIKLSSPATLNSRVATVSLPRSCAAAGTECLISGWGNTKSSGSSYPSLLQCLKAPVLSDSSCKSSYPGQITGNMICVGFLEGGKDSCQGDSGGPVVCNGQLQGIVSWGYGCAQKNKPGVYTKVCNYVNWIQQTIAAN
Chain of pepsin (P00791 60-385): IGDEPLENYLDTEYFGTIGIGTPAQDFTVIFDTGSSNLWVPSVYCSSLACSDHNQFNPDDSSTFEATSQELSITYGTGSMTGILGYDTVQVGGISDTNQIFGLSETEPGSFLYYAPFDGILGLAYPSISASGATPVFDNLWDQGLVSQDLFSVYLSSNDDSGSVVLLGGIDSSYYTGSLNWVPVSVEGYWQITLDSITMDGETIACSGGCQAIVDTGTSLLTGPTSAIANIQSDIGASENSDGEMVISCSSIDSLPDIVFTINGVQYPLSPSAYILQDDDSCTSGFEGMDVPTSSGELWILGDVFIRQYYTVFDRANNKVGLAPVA

Compound | resistance to incubation at 70° C. (in words) [3] | resistance to incubation at 100° C. (in words) [3] | other results
CC[C@H](C)[C@@H]1NC(=O)[C@@H]2CSSC[C@H](NC(=O)[C@H](CCCCN)NC(=O)[C@@H](NC(=O)[C@H](CC(N)=O)NC(=O)[C@@H](NC(=O)[C@H](CC(=O)O)NC(=O)[C@@H](NC(=O)[C@H](CCC(N)=O)NC(=O)[C@H](CO)NC(=O)CN)[C@@H](C)CC)[C@@H](C)O)C(C)C)C(=O)N[C@@H](CO)C(=O)NCC(=O)N[C@@H](CO)C(=O)N[C@@H](CO)C(=O)N[C@@H](CCCCN)C(=O)N[C@H]3CSSC[C@H](NC(=O)[C@H](CCCNC(=N)N)NC(=O)CNC(=O)[C@H](CC(N)=O)NC1=O)C(=O)N[C@@H]([C@@H](C)O)C(=O)N[C@H](C(=O)N[C@@H](Cc1ccc(O)cc1)C(=O)N1CCC[C@H]1C(=O)O)CSSC[C@H](NC(=O)[C@H]([C@@H](C)CC)NC(=O)[C@H](CCCCN)NC(=O)[C@H](C(C)C)NC3=O)C(=O)N[C@@H]([C@@H](C)CC)C(=O)N[C@@H](CC(=O)O)C(=O)N[C@@H](CCCNC(=N)N)C(=O)N[C@@H](Cc1ccc(O)cc1)C(=O)N[C@@H](CC(N)=O)C(=O)N[C@@H]([C@@H](C)O)C(=O)N[C@@H](CCCNC(=N)N)C(=O)NCC(=O)N[C@@H](C)C(=O)N[C@@H](CCCCN)C(=O)N2 [compound 35] (H-GSQIDTNVKCSGSSKCVKICIDRYNTRGAKCINGRCTCYP-OH; disulfide 10-31, 16-36, 20-38) |  |  | Resistance to Trypsin (500 U/ml) ([1]; 500 U/ml trypsin, HPLC peak vs untreated peptide): Low (A peptide classified as low indicates that the majority (over 75%) of the HPLC peak of the treated peptide disappeared as compared to the HPLC peak of the untreated peptide); Resistance to Pepsin (500 U/ml) ([2]; 500 U/ml pepsin in SGF pH 1.05, 30 minutes at 37.5° C., HPLC peak vs untreated peptide): Low (A peptide classified as low indicates that the majority (over 75%) of the HPLC peak of the treated peptide disappeared as compared to the HPLC peak of the untreated peptide)
CC[C@H](C)[C@@H]1NC(=O)[C@@H](NC(=O)[C@H](CC(=O)O)NC(=O)[C@H](CCCCN)NC(=O)[C@H](CCC(=O)O)NC(=O)[C@H](CO)NC(=O)[C@H](CO)NC(=O)CN)CSSC[C@@H]2NC(=O)[C@@H]3CSSC[C@@H](C(=O)N[C@@H](CCCNC(=N)N)C(=O)O)NC(=O)[C@H](CCCNC(=N)N)NC(=O)[C@H](CCCCN)NC(=O)[C@H](CCC(=O)O)NC(=O)[C@@H]4CCCN4C(=O)[C@H](CC(N)=O)NC(=O)[C@H]([C@@H](C)O)NC(=O)CNC(=O)[C@H](CCCNC(=N)N)NC(=O)[C@H](CCCNC(=N)N)NC(=O)[C@H](CO)NC(=O)[C@H](CSSC[C@H](NC(=O)[C@H](CCCNC(=N)N)NC(=O)[C@H](CCC(N)=O)NC(=O)[C@H](CC(C)C)NC(=O)[C@H](Cc4c[nH]cn4)NC(=O)[C@H](CCCCN)NC1=O)C(=O)N[C@@H](CCCNC(=N)N)C(=O)N[C@@H](CCC(=O)O)C(=O)N[C@@H](CC(N)=O)C(=O)N[C@@H](CCCCN)C(=O)N[C@@H](CC(=O)O)C(=O)N3)NC(=O)[C@H](CCCCN)NC(=O)[C@H](CCCCN)NC(=O)[C@H](CO)NC2=O [SEQ ID NO: 29] (H-GSSEKDCIKHLQRCRENKDCCSKKCSRRGTNPEKRCR-OH; disulfide 7-21, 14-25, 20-36) |  |  | resistance to pepsin digestion (in words) ([2]; 500 U/ml pepsin (50 U per reaction) in SGF, 30 minutes at 37.5° C., HPLC): resistant
CC[C@H](C)[C@@H]1NC(=O)[C@H](CCCCN)NC(=O)[C@@H](NC(=O)[C@H](CCCCN)NC(=O)[C@@H](NC(=O)[C@H](CC(N)=O)NC(=O)[C@@H](NC(=O)[C@@H](NC(=O)[C@@H](NC(=O)CNC(=O)[C@H](CO)NC(=O)CN)C(C)C)[C@@H](C)CC)[C@@H](C)CC)C(C)C)CSSC[C@@H]2NC(=O)[C@H](CCCCN)NC(=O)CNC(=O)[C@H](Cc3ccccc3)NC(=O)[C@H](CCCNC(=N)N)NC(=O)[C@H](CCSC)NC(=O)CNC(=O)[C@H](C)NC(=O)[C@H](CCCCN)NC(=O)[C@H](CCCCN)NC(=O)[C@@H]3CSSC[C@@H](C(=O)N[C@H](C(=O)N4CCC[C@H]4C(=O)N[C@@H](CCCCN)C(=O)O)[C@@H](C)O)NC(=O)[C@H](Cc4c[nH]cn4)NC(=O)[C@H](CSSC[C@H](NC(=O)[C@H](CCC(N)=O)NC(=O)[C@H](CCCNC(=N)N)NC(=O)[C@H](CO)NC1=O)C(=O)N[C@@H](CC(C)C)C(=O)N[C@@H](CCC(=O)O)C(=O)N1CCC[C@H]1C(=O)N3)NC(=O)[C@H](CCCCN)NC(=O)CNC(=O)[C@H](CC(N)=O)NC(=O)[C@H](CCSC)NC2=O [SEQ ID NO: 57] |  |  | resistance to trypsin digestion (in words) ([1]; 500 U/ml trypsin (50 U per reaction), HPLC): highly resistant; also recorded: fully resistant
GSEVIRCSGSKQCYGPCKQQTGCTNSKCMNKVCKCYGCG [SEQ ID NO: 23] | resistant | various degrees of degradation | 
GSACLAEYQKCEGSTVPCCPGLSCSAGRFRKTKLCTK [SEQ ID NO: 25] | resistant | various degrees of degradation | 
GSACQFWSCNSSCISRGYRQGYCWGIQYKYCQCQ [SEQ ID NO: 17] |  | resistant | 

— US20190375786A1, “STABLE PEPTIDES AND METHODS OF USE THEREOF” (Fred Hutchinson Cancer Research Center, priority 2016, published 2019)
